Source: publication PMC5474753 (Journal of molecular biology, 2016)

Molecular target: the molecule itself
Assay: FRET or BRET

B1: full-length FGFR3 C228R mutant (CHO) (receptor)
chain: ESLGTEQRVVGRAAEVPGPEPGQQEQLVFGSGDAVELSCPPPGGGPMGPTVWVKDGTGLVPSERVLVGPQRLQVLNASHEDSGAYSCRQRLTQRVLCHFSVRVTDAPSSGDDEDGEDEAEDTGVDTGAPYWTRPERMDKKLLAVPAANTVRFRCPAAGNPTPSISWLKNGREFRGEHRIGGIKLRHQQWSLVMESVVPSDRGNYTRVVENKFGSIRQTYTLDVLERSPHRPILQAGLPANQTAVLGSDVEFHCKVYSDAQPHIQWLKHVEVNGSKVGPDGTPYVTVLKTAGANTTDKELEVLSLHNVTFEDAGEYTCLAGNSIGFSHHSAWLVVLPAEEELVEADEAGSVYAGILSYGVGFFLFILVVAAVTLCRLRSPPKKGLGSPTVHKISRFPLKRQVSLESNASMSSNTPLVRIARLSSGEGPTLANVSELELPADPKWELSRARLTLGKPLGEGCFGQVVMAEAIGIDKDRAAKPVTVAVKMLKDDATDKDLSDLVSEMEMMKMIGKHKNIINLLGACTQGGPLYVLVEYAAKGNLREFLRARRPPGLDYSFDTCKPPEEQLTFKDLVSCAYQVARGMEYLASQKCIHRDLAARNVLVTEDNVMKIADFGLARDVHNLDYYKKTTNGRLPVKWMAPEALFDRVYTHQSDVWSFGVLLWEIFTLGGSPYPGIPVEELFKLLKEGHRMDKPANCTHDLYMIMRECWHAAPSQRPTFKQLVEDLDRVLTVTSTDEYLDLSAPFEQYSPGGQDTPSSSSSGDDSVFAHDLLPPAPPSSGGSRT
  stoichiometry N: 2
